Measured values published in patent publication CN117736312A (SHANGHAI BOVAX BIOLOGICAL SCIENCE & TECH CO LTD, dated 2024).

Experiments:
Assay in all cases: sandwich ELISA (rabbit anti-L1 capture)
[1] = target: T1, HPV52L1 (human papillomavirus type 52, UniProt Q05138 27-529)
T1 sequence: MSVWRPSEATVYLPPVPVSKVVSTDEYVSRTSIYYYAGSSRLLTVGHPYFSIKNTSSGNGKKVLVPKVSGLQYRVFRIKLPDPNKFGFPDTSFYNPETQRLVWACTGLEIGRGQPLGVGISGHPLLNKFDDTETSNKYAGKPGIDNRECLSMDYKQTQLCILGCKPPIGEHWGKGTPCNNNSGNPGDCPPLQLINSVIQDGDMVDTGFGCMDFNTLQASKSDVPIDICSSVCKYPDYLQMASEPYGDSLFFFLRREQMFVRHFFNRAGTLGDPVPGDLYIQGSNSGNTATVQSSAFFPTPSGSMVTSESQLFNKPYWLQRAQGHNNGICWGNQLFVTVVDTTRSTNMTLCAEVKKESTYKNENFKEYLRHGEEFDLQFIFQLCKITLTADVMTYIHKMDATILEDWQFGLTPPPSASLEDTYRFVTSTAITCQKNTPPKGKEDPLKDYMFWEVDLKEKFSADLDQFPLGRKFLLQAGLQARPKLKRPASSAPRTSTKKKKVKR

[2] = target: T2, HPV51L1 (human papillomavirus type 51, UniProt P26536 1-504)
T2 sequence: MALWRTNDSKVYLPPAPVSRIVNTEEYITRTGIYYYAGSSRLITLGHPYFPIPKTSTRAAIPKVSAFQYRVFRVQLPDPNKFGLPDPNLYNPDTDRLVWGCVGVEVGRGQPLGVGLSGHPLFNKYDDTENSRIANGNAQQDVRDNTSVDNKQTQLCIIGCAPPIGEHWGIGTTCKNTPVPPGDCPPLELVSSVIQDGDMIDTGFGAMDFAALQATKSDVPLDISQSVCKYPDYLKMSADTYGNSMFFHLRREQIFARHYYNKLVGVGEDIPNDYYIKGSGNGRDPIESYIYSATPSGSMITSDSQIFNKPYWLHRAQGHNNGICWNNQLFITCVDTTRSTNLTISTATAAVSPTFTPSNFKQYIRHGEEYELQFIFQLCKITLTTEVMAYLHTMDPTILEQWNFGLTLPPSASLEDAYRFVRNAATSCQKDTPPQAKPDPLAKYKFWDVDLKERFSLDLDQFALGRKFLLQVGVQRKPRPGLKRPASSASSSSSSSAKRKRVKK

[3] = target: T3, HPV11L1 (human papillomavirus type 11, UniProt P04012 1-501)
T3 sequence: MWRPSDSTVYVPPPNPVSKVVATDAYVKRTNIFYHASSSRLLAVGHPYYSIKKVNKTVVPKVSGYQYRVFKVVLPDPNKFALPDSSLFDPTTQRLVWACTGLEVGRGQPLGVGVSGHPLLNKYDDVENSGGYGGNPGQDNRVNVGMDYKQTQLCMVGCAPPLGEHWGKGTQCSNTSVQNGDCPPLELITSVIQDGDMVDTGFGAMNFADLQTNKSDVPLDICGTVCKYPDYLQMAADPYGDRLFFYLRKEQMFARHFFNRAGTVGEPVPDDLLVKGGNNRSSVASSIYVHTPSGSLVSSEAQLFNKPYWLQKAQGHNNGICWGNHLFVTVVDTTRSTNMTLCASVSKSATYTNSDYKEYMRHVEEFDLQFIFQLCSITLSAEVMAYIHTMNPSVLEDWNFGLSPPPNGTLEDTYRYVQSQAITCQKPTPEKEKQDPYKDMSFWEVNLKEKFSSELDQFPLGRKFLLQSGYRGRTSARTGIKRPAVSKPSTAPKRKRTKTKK

B1: HPV 59编号为30单克隆抗体 (antibody, V domains shown)
VH: QIQLVQSGPELKKPGETVKISCKASGYTFTDYSMHWVKQAPGKGLKWMGWINTETGEPTYADDFKGRFAFSLETSASTAYLQINNLKIEDTATYFCTRDGYVWYFDVWGAGTTVTVSS
VL: QIVLSQSPAILSASPGEKVTMTCRASSSVNYMHWYQQKPGSSPKPWIYATSNLASGVPARFSGSGSGTSYSLTISRVEAEDAATYYCQQWSSNPIFTFGSGTKLEIK
notes: Mouse hybridoma antibody tested as cell supernatant; also called 59H30
[1]
  binding result: no binding (tested: 原液40μg/ml; 细胞上清1:100)
[2]
  binding result: no binding (tested: 原液40μg/ml; 细胞上清1:100)
[3]
  binding result: no binding (tested: 原液40μg/ml; 细胞上清1:100)
